Laboratory results from paper PMC11865535 (Nature Communications, 2025).

B1: ^CFPCAND2 (natural protein)
chain: MSTAAFHISSLLEKMTSSDKDFRFMATSDLMSELQKDSIQLDEDSERKVVKMLLRLLEDKNGEVQNLAVKCLGPLVVKVKEYQVETIVDTLCTNMRSDKEQLRDIAGIGLKTVLSELPPAATGSGLATNVCRKITGQLTSAIAQQEDVAVQLEALDILSDMLSRLGVPLGAFHASLLHCLLPQLSSPRLAVRKRAVGALGHLAAACSTDLFVELADHLLDRLPGPRVPTSPTAIRTLIQCLGSVGRQAGHRLGAHLDRLVPLVEDFCNLDDDELRESCLQAFEAFLRKCPKEMGPHVPNVTSLCLQYIKHDPNYNYDSDEDEEQMETEDSEFSEQESEDEYSDDDDMSWKVRRAAAKCIAALISSRPDLLPDFHCTLAPVLIRRFKEREENVKADVFTAYIVLLRQTQPPKGWLEAMEEPTQTGSNLHMLRGQVPLVVKALQRQLKDRSVRARQGCFSLLTELAGVLPGSLAEHMPVLVSGIIFSLADRSSSSTIRMDALAFLQGLLGTEPAEAFHPHLPILLPPVMACVADSFYKIAAEALVVLQELVRALWPLHRPRMLDPEPYVGEMSAVTLARLRATDLDQEVKERAISCMGHLVGHLGDRLGDDLEPTLLLLLDRLRNEITRLPAIKALTLVAVSPLQLDLQPILAEALHILASFLRKNQRALRLATLAALDALAQSQGLSLPPSAVQAVLAELPALVNESDMHVAQLAVDFLATVTQAQPASLVEVSGPVLSELLRLLRSPLLPAGVLAAAEGFLQALVGTRPPCVDYAKLISLLTAPVYEQAVDGGPGLHKQVFHSLARCVAALSAACPQEAASTASRLVCDARSPHSSTGVKVLAFLSLAEVGQVAGPGHQRELKAVLLEALGSPSEDVRAAASYALGRVGAGSLPDFLPFLLEQIEAEPRRQYLLLHSLREALGAAQPDSLKPYAEDIWALLFQRCEGAEEGTRGVVAECIGKLVLVNPSFLLPRLRKQLAAGRPHTRSTVITAVKFLISDQPHPIDPLLKSFIGEFMESLQDPDLNVRRATLAFFNSAVHNKPSLVRDLLDDILPLLYQETKIRRDLIREVEMGPFKHTVDDGLDVRKAAFECMYSLLESCLGQLDICEFLNHVEDGLKDHYDIRMLTFIMVARLATLCPAPVLQRVDRLIEPLRATCTAKVKAGSVKQEFEKQDELKRSAMRAVAALLTIPEVGKSPIMADFSSQIRSNPELAALFESIQKDSASAPSTDSMELS
B2: ^CFPCAND1 (natural protein)
chain: MASASYHISNLLEKMTSSDKDFRFMATNDLMTELQKDSIKLDDDSERKVVKMILKLLEDKNGEVQNLAVKCLGPLVSKVKEYQVETIVDTLCTNMLSDKEQLRDISSIGLKTVIGELPPASSGSALAANVCKKITGRLTSAIAKQEDVSVQLEALDIMADMLSRQGGLLVNFHPSILTCLLPQLTSPRLAVRKRTIIALGHLVMSCGNIVFVDLIEHLLSELSKNDSMSTTRTYIQCIAAISRQAGHRIGEYLEKIIPLVVKFCNVDDDELREYCIQAFESFVRRCPKEVYPHVSTIINICLKYLTYDPNYNYDDEDEDENAMDADGGDDDDQGSDDEYSDDDDMSWKVRRAAAKCLDAVVSTRHEMLPEFYKTVSPALISRFKEREENVKADVFHAYLSLLKQTRPVQSWLCDPDAMEQGETPLTMLQSQVPNIVKALHKQMKEKSVKTRQCCFNMLTELVNVLPGALTQHIPVLVPGIIFSLNDKSSSSNLKIDALSCLYVILCNHSPQVFHPHVQALVPPVVACVGDPFYKITSEALLVTQQLVKVIRPLDQPSSFDATPYIKDLFTCTIKRLKAADIDQEVKERAISCMGQIICNLGDNLGSDLPNTLQIFLERLKNEITRLTTVKALTLIAGSPLKIDLRPVLGEGVPILASFLRKNQRALKLGTLSALDILIKNYSDSLTAAMIDAVLDELPPLISESDMHVSQMAISFLTTLAKVYPSSLSKISGSILNELIGLVRSPLLQGGALSAMLDFFQALVVTGTNNLGYMDLLRMLTGPVYSQSTALTHKQSYYSIAKCVAALTRACPKEGPAVVGQFIQDVKNSRSTDSIRLLALLSLGEVGHHIDLSGQLELKSVILEAFSSPSEEVKSAASYALGSISVGNLPEYLPFVLQEITSQPKRQYLLLHSLKEIISSASVVGLKPYVENIWALLLKHCECAEEGTRNVVAECLGKLTLIDPETLLPRLKGYLISGSSYARSSVVTAVKFTISDHPQPIDPLLKNCIGDFLKTLEDPDLNVRRVALVTFNSAAHNKPSLIRDLLDTVLPHLYNETKVRKELIREVEMGPFKHTVDDGLDIRKAAFECMYTLLDSCLDRLDIFEFLNHVEDGLKDHYDIKMLTFLMLVRLSTLCPSAVLQRLDRLVEPLRATCTTKVKANSVKQEFEKQDELKRSAMRAVAALLTIPEAEKSPLMSEFQSQISSNPELAAIFESIQKDSSSTNLESMDTS

Target: CUL1^FlAsH preassembled with SKP1·SKP2 (UniProt Q13616;P62877;P63208;Q13309, FlAsH fluorophore on the C-terminal tetracysteine tag)
Sequence (Q13616 whole entry, chain 1 of 3): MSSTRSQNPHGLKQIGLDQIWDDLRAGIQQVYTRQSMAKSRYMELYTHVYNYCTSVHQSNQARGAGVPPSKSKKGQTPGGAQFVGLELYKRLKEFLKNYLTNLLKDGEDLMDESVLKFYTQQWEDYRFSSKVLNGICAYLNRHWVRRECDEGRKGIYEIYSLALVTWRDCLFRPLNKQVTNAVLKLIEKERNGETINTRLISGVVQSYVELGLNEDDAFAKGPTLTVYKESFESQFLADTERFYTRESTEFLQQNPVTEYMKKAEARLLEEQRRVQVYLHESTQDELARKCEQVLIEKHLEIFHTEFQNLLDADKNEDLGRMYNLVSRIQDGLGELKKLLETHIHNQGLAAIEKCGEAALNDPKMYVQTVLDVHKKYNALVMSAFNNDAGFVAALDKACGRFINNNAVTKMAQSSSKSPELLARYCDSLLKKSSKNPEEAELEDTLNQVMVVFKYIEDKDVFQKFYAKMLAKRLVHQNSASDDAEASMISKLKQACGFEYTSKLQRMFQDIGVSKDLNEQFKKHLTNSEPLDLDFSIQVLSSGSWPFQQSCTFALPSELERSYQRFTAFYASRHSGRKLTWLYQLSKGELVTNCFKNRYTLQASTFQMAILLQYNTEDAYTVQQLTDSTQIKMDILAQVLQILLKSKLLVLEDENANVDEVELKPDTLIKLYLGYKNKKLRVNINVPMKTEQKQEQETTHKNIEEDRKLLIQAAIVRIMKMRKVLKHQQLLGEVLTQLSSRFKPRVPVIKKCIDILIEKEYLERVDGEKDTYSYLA
Sequence (P63208 whole entry, chain 3 of 3): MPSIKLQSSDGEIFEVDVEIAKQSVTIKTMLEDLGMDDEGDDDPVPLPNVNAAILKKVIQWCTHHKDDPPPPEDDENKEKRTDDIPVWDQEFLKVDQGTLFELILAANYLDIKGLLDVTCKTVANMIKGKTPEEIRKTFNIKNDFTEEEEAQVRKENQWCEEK
Sequence (Q13309 whole entry, chain 4 of 3): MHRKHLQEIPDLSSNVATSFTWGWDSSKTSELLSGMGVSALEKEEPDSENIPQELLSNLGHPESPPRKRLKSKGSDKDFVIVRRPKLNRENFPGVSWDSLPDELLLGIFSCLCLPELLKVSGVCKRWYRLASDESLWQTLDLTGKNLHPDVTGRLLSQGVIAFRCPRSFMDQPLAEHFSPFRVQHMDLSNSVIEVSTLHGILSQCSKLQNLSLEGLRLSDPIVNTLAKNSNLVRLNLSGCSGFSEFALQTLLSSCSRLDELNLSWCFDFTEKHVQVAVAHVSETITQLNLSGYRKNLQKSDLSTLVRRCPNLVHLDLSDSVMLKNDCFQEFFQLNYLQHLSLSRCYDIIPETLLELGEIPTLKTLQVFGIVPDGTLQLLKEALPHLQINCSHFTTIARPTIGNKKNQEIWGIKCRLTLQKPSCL
Assay: FRET or BRET

Row | Binder | koff [s⁻¹]
1 | B1 | 4.4
2 | B2 | 2.5
